Numbering of substitutions follows the chain as printed.
T1: PA83 peptide PLYISNPNY (domain IV) (Bacillus anthracis)
T1 chain: PLYISNPNY

T2: PA83 region YTVDVKNKRTFLSPWI (domain I) (Bacillus anthracis)
T2 chain: YTVDVKNKRTFLSPWI

B1: 35PA83 6.20 G1 (antibody, V domains shown)
VH: QVQLQESGPGLVKPSETLSLTCTVSGDSISGGYYWGWIRQSPGKGLEWIGLIYGSTADTRYNPSLKGRVTISKDTSKNQFSLKLSSVTAADTAVYYCARSGYNFWSGEYYGLDSWGQGTLVTVSS
VL: AIQLTQSPSSLSAYVGDRVTITCHASQGINSWLAWYQQKPGKAPKLLIYKASSLLSGVPSRFSGSGSGTDFTLTISSLQSEDFATYYCLQYDSAPLAFGPGTKLEIK
notes: also called mutant that combined the 10 selected mutations; source: expressed and purified by Proteogenix
B2: 35PA83 6.20 IgG1 (GMP batch) (antibody, V domains shown)
VH: B1 VH with V12L, T23A, G36S, F80L, K83Q, S85R, T119A, L120V
VL: B1 VL with R18K, F71Y, T85S, E105D
notes: also called IgG 35PA83 6.20; 35PA83 6.20 mAb; source: rat YB2/0-E cell line (LFB), GMP conditions
B3: 35PA83 6.20 (parental antibody of the super-humanization) (antibody, V domains shown)
VH: B1 VH with V12L, T23A, G36S, F80L, K83Q, S85R, T119A, L120V
VL: B1 VL with R18K, F71Y, T85S, E105D
notes: also called the parental antibody; 35PA80 6.20

What was measured:
Conditions in all cases: both partners purified
[1] = molecular target: Protective Antigen PA83 (83 kDa) of Bacillus anthracis (Bacillus anthracis, strain of …, UniProt P13423); assay: SPR
Chain of Protective Antigen PA83 (83 kDa) of Bacillus anthracis (P13423 whole entry, looked up): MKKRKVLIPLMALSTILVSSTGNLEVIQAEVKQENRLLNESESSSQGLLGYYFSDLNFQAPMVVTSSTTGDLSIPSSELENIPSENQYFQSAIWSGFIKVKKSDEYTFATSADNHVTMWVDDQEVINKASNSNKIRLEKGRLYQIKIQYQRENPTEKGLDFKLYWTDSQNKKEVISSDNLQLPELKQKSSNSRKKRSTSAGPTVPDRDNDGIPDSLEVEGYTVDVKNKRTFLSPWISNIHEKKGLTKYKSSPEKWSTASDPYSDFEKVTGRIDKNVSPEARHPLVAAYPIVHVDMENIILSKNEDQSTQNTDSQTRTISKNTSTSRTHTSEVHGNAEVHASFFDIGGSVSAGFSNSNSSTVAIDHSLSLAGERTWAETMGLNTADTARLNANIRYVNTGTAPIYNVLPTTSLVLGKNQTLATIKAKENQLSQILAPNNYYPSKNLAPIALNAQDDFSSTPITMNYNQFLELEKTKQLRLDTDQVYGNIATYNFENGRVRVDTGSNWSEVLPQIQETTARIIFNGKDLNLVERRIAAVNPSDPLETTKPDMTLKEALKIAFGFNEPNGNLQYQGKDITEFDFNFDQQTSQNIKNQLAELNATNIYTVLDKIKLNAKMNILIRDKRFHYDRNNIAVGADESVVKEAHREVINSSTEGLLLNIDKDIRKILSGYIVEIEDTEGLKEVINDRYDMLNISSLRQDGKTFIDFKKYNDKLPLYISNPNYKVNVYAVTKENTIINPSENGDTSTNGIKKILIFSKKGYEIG

[2] = molecular target: T1, PA83 peptide PLYISNPNY (domain IV); assay: peptide or protein array
[3] = molecular target: T2, PA83 region YTVDVKNKRTFLSPWI (domain I); assay: peptide or protein array

Binder	Kd [1]	binding result [2]	binding result [3]
B1	316 pM		
B2		binds	binds
B3	180 pM		

From article PMC8955606 (Toxins, 2022)
